Test in all cases: native gel or EMSA
In general terms: In EMSA bound probe runs differently from free probe, usually more slowly.

The target in assay [1] is His-Halo-PRDM9^Cst ZnF1-11 (Mus musculus castaneus (CAST/EiJ strain)).
Assay [2] has as its target His-MBP-eYFP-PRDM9^Cst ZnF (Mus musculus castaneus (CAST/EiJ strain)).
Assay [3] concerns the target His-MBP-eYFP-PRDM9^Dom2 ZnF (Mus musculus domesticus (C57BL/6J strain)).
The target in assay [4] is His-PRDM9^Cst ZnF1-11 (Mus musculus castaneus (CAST/EiJ strain)).
The target in assay [5] is His-PRDM9^Cst ZnF2-6 (Mus musculus castaneus (CAST/EiJ strain)).
Assay [6] concerns the target His-PRDM9^Cst ZnF2-8 (Mus musculus castaneus (CAST/EiJ strain)).
For assay [7], the target named is His-PRDM9^Cst ZnF (Mus musculus castaneus (CAST/EiJ strain)).
Assay [8] deals with His-eYFP-PRDM9^Cst (full-length PRDM9^Cst) (Mus musculus castaneus (CAST/EiJ strain)).
For assay [9], the target named is His-eYFP-PRDM9^Cst ZnF1-11 (Mus musculus castaneus (CAST/EiJ strain)).
The target of assay [10] is His-eYFP-PRDM9^Cst ZnF2-11 (Mus musculus castaneus (CAST/EiJ strain)).
In assay [11] the target is His-eYFP-PRDM9^Cst ZnF (Mus musculus castaneus (CAST/EiJ strain)).

Consider “His-Halo-PRDM9^Cst ZnF1-11 (domain or fragment)”, for which, in assay [1], the stoichiometry N – broadly, a count of units in the complex or per binding partner – was 3.
For the substance “His-MBP-eYFP-PRDM9^Cst ZnF (domain or fragment)”, the stoichiometry N in [2] turned out to be 3.
As to “His-MBP-eYFP-PRDM9^Dom2 ZnF (domain or fragment)”, the stoichiometry N in assay [3] was found to be 3.
With “His-PRDM9^Cst ZnF1-11 (domain or fragment)”, the stoichiometry N in [4] came out at 3.
With “His-PRDM9^Cst ZnF2-6 (domain or fragment)”, the stoichiometry N in [5] was found to be 3.
“His-PRDM9^Cst ZnF2-8 (domain or fragment)” gave a stoichiometry N in [6] of 3.
Turning to His-PRDM9^Cst ZnF (domain or fragment), the stoichiometry N in assay [7] came out at 3.
Turning to “His-eYFP-PRDM9^Cst (full-length PRDM9^Cst) (natural protein)”, the stoichiometry N in [8] was 3.
In the case of “His-eYFP-PRDM9^Cst ZnF1-11 (domain or fragment)”, the stoichiometry N in assay [9] was 3.
Turning to “His-eYFP-PRDM9^Cst ZnF2-11 (domain or fragment)”, the stoichiometry N in [10] was found to be 3.
“His-eYFP-PRDM9^Cst ZnF (domain or fragment)” returned a stoichiometry N in assay [11] of 3.

The record behind these values is publication doi:10.1101/498428.
